According to paper PMC8080463:

Each binder was assayed against HB-EGF (UniProt Q99075 63-148) (assay: SPR).
Chain of HB-EGF (Q99075 63-148): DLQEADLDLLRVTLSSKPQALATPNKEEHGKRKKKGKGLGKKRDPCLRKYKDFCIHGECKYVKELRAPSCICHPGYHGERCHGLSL

Binding result, no binding:
GGAGGCGGCGAGG (structured_DNA) [HBEGF-PQS2], GGGAGGGTCCGGGTTGCTGG (structured_DNA) [HBEGF-PQS1], GGGCGGCGGAGCTCAGG (ssDNA) [HBEGF-PQS4], GGCCGGGAATAAGGCTCCAGG (ssDNA) [HBEGF-PQS5], GGCGGCCACTGGGCGCTGG (ssDNA) [HBEGF-PQS3], GGCGCGCGGGGTCGGGCGGCCGCGCGGG (ssDNA) [HBEGF-PQS6]

These binders were tested against bFGF (UniProt P09038 143-288) (assay: SPR).
Chain of bFGF (P09038 143-288): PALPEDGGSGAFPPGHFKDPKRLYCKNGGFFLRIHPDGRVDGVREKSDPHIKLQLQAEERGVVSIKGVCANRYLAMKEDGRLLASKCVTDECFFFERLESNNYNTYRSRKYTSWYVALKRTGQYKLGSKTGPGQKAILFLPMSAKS

Binding result, no binding:
GGGGGCGCGGGAGGCTGGTGGGTGTGGGGGG (ssDNA) [bFGF-PQS3], GGGAGGAGGGTGCAGGCTGGAGG (ssDNA) [bFGF-PQS12], GGCTGCGGCGTAGGCCCGGG (ssDNA) [bFGF-PQS9], GGGCACGGCCCCGGCCCCGG (ssDNA) [bFGF-PQS15], GGGCCGGGGGTACTGGTTTACAGG (ssDNA) [bFGF-PQS10], GGCTCGAGGCTGGGGGACCGCGG (ssDNA) [bFGF-PQS4], GGAAAGGAGGGGG (ssDNA) [bFGF-PQS11], GGGGGCGGGGGAGAGGCGAGGGGCGGGGGG (ssDNA) [bFGF-PQS17], GGCGAGCCGGCGGCCCGGGACCTGGG (ssDNA) [bFGF-PQS16], GGCCGCGGCAGGGCTTTGG (ssDNA) [bFGF-PQS18], GGGGGCGGCGCGCAGGAGGGAGG (ssDNA) [bFGF-PQS2], GGCCGGGCGGGAAGG (ssDNA) [bFGF-PQS13], GGGCCGGGGCCGGGGGACGG (ssDNA) [bFGF-PQS7], GGAGCGGGTCGGAGG (ssDNA) [bFGF-PQS6], GGGCAAGGCGGGCAGCGTGG (ssDNA) [bFGF-PQS14], GGGAGGCTGGGGGGCCGGGGCCGGGG (ssDNA) [bFGF-PQS5], GGGGTTGGGCGGGGGTGACTTTTGGGGGATAAGGGG (ssDNA) [bFGF-PQS1], GGTTTCTGGCCGCGCGGCCCTCGG (ssDNA) [bFGF-PQS8]

These binders were tested against aFGF (UniProt P05230 16-155) (assay: SPR).
Chain of aFGF (P05230 16-155): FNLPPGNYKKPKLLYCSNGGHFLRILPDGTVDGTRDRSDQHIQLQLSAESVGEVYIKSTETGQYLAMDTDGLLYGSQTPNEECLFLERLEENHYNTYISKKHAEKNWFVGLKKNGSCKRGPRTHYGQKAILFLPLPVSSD

Binding result, no binding:
GGGTGGTGTGGGAGTGG (ssDNA) [aFGF-PQS12], GGAGAGGGTAGAGTGGGATGGG (ssDNA) [aFGF-PQS2], GGGCAAAGGTCCTAGGGTGGGGG (ssDNA) [aFGF-PQS16], GGGAGGTTAGGGTTGG (ssDNA) [aFGF-PQS18], GGGCTGGAGGGGGCAGG (ssDNA) [aFGF-PQS14], GGTGGGGGGGG (ssDNA) [aFGF-PQS7], GGTGGGTGGGTATGG (ssDNA) [aFGF-PQS4], GGGAAGGAGGGAGGAAGGGAGGGAGGG (ssDNA) [aFGF-PQS20], GGCACTGGAGGAATGG (ssDNA) [aFGF-PQS5], GGGCTTGGCTCTGGGGATGG (ssDNA) [aFGF-PQS11], GGAGACGGTAGGGCAAAGTGG (ssDNA) [aFGF-PQS3], GGCCTGCAGGACTCTGGGAGG (ssDNA) [aFGF-PQS15], GGTGGGAGGAAGG (ssDNA) [aFGF-PQS23], GGAGAACAGGAAGGCGGGGGTGAGGG (ssDNA) [aFGF-PQS1], GGATGGGACAAGGGACAGG (ssDNA) [aFGF-PQS22], GGAAATGAGGCAGAGGGGGAGTAAGG (ssDNA) [aFGF-PQS17], GGTCCCAGGCCTGGGAGGG (ssDNA) [aFGF-PQS21], GGTTGGGACTGGCGAGG (ssDNA) [aFGF-PQS8], GGCATGGTATCTGGAGGCAGG (ssDNA) [aFGF-PQS13], GGTGGAGGAAAGG (ssDNA) [aFGF-PQS19], GGGAGAGGGACGGGCCGTGG (ssDNA) [aFGF-PQS6], GGCTAGAAGGTGGGGAATAAGG (ssDNA) [aFGF-PQS10], GGCCAGGACAGGGTAAGG (ssDNA) [aFGF-PQS9]
